B1: hcab55 Fab (Fab, V domains shown)
VH: QVQLVQSGAEIKKPGASVKVSCKASGYTFISNYFHWVRQAPGQGLEWMGIINPSSGSTTYGQKFQGRVTLTSDTSASIVYLELSRLRSEDTAVYYCVSPRIAHCRGGRCYETLDWGQGTLVTVSS
VL: EIVLTQSPVSLSLSPGERATLSCRASQSVSSNYLAWYQLKPGRAPRLLIYGASSRAPGIPDRFSGSGSGTDFTLTISRLEPEDFAVYYCQQYGISSWTFGQGTKVEIK
B2: hcab40 Fab (Fab, V domains shown)
VH: QVQLQQWGAGLLKPSESLSLTCVVYGGSFSGYYWSWIRQPPGKGLEWIGEINPTGSTNYNPSLNSRVTISVDRSKNHLSLKLSSVTAADTAVYFCARFLPPDYDLLTDYFDPPGAFDIWGQGTMVTVSS
VL: DIHMTQSPFSLSASVGDRVTITCRASQSISGWLAWYQQKVGNAPKLLIYKASSLESGVPSRFSGSGSGTEFTLSISSLQPDDFATYYCQQYNSYPFTFGPGTKVDMK
B3: hcab64 Fab (Fab, V domains shown)
VH: QVQLVQSGAEIQKPGASVKVSCRASGYTYISTSFHWVRQAPGQGLEWMGVIKTDDGSTSDTQKFQGRLRMTWDTSTSTVYMELSSLRSDDTAVYYCVSPRLGHCRRGRCYETLDWGQGSLVTVSS
VL: EIVLTQSPGTLSLSPGERATLSCRASQSVSSSYLAWYQQKPGQAPRLLVYGASTRATGIPDRFSGSGSGTDFTLTISRLEPEDFAVYYCHQYSSSFWTFGQGTKVEIK
B4: hcab17 Fab (Fab, V domains shown)
VH: QVQLNQWGAGLLKPSETLSLTCAVYGDAFSGNYWSWIRQPPGKGLQWIGEINHSGNTNYDPSLESRVSISLDTSKNQLSLKLNSVTAADTALYYCARGQRNCSGGNCYSGLWAWGQGTLVTVSS
VL: AIHMTQSPFSLSASVGDRVTITCRASQGIRNDLAWYQHKPGTAPKVLIYAASSLQDGVSSRFSGSGSGTLFTLTISSLQPEDFATYYCLQGYNYPRTFGQGTKVEMK

What follows are binders tested against 1b09 HCV E2 ectodomain (E2ecto) (Hepatitis C virus genotype 1b, strain …, strain) (assay: crystal structure).

| Binder | binding result |
| --- | --- |
| B1 | binds |
| B2 | binds |
| B3 | binds |
| B4 | binds |
